Data from publication PMC12014896 (2025).

B1: COVIC-291 (antibody, V domains shown)
VH: EVQLVESGGGLVQPGRSLRLSCAASGFTFDDYAMHWVRQAPGKGLEWVSGISWNSDSIDYADSVKGRFTISRDNAKNSLYLQMNSLRAEDTALYYCAKDRGYEILTPASFDYWGQGTLVTVSS
VL: DIQMTQSPSSLSASVGDRVTITCRASQSISSYLNWFQHKPGKAPKLLIYGASSLQSGVPSRFSGSGSGTDFTLTISSLQPEDFATYYCQQSYSTPPYTFGQGTKLEIK
B2: COVIC-54 (antibody, V domains shown)
VH: QVQLQESGGGLVQAGGSLRLSCAASGRTFSEYAMGWFRQAPGKEREFVATISWSGGSTYYTDSVKGRFTISRDNAKNTVYLQMNSLKPDDTAVYYCAAAGLGTVVSEWDYDYDYWGQGTQVTVSS
B3: COVIC-95 (antibody, V domains shown)
VH: EVQLVESGGGLVQPGGSLRLSCAASGQTFNMGWFRQAPGKEREFVAAIGSGGSTSYADSVKGRFTISADNSKNTAYLQMNSLKPEDTAVYYCWRLGNDYFDYWGQGTLVTVSS
B4: COVIC-30 (antibody, V domains shown)
VH: EVQLVESGGGLVQPGGSLRLSCAASGFTVSSNYMSWVRQAPGKGLEWVSVIYSGGSTYYADSVKGRFTISRDNSKNTLYLQMNSLRAEDTAVYYCARVEWAAAGTFYWGQGTLVTVSS
VL: QSALTQEPSLTVSPGGTVTLTCGSSTGAVTSGHYPYWFQQKPGQAPRTLIYDTSNKRSWTPARFSGSLLGGKAALTLSGAQPEDEAEYYCLLSYSGVWVFGGGTKLTVL
B5: COVIC-57 (antibody)
chain 1: QVQLQESGGGLVQAGGSLRLSCAASGRTFSEYAMGWFRQAPGKEREFVATISWSGGSTYYTDSVKGRFTISRDNAKNTVYLQMNSLKPDDTAVYYCAAAGLGTVVSEWDYDYDYWGQGTQVTVSSGGGGSGGGGSASTKGPSVFPLAPSSKSTSGGTAALGCLVKDYFPEPVTVSWNSGALTSGVHTFPAVLQSSGLYSLSSVVTVPSSSLGTQTYICNVNHKPSNTKVDKKVEPKSCDKTHTKKKPLDGEYFTLQIRGRERFEMFRELNEALELKDAQAGKEPG
chain 2: QVQLQESGGGLVQAGGSLRLSCAASGRTFSEYAMGWFRQAPGKEREFVATISWSGGSTYYTDSVKGRFTISRDNAKNTVYLQMNSLKPDDTAVYYCAAAGLGTVVSEWDYDYDYWGQGTQVTVSSGGGGSGGGGSKRTVAAPSVFIFPPSDEQLKSGTASVVCLLNNFYPREAKVQWKVDNALQSGNSQESVTEQDSKDSTYSLSSTLTLSKADYEKHKVYACEVTHQGLSSPVTKSFNRGEC
B6: COVIC-125 (antibody)
chain 1: QVQLQESGGGLVQAGGSLRLSCAASGRTFSEYAMGWFRQAPGKEREFVATISWSGGSTYYTDSVKGRFTISRDNAKNTVYLQMNSLKPDDTAVYYCAAAGLGTVVSEWDYDYDYWGQGTQVTVSSGGSGGSQVQLQESGGGLVQAGGSLRLSCAASGRTFSEYAMGWFRQAPGKEREFVATISWSGGSTYYTDSVKGRFTISRDNAKNTVYLQMNSLKPDDTAVYYCAAAGLGTVVSEWDYDYDYWGQGTQVTVSSGGGGSGGGGSASTKGPSVFPLAPSSKSTSGGTAALGCLVKDYFPEPVTVSWNSGALTSGVHTFPAVLQSSGLYSLSSVVTVPSSSLGTQTYICNVNHKPSNTKVDKKVEPKSCDKTHTKKKPLDGEYFTLQIRGRERFEMFRELNEALELKDAQAGKEPGGGGGSGGGGSQVQLQESGGGLVQAGGSLRLSCAASGRTFSEYAMGWFRQAPGKEREFVATISWSGGSTYYTDSVKGRFTISRDNAKNTVYLQMNSLKPDDTAVYYCAAAGLGTVVSEWDYDYDYWGQGTQVTVSSGGSGGSQVQLQESGGGLVQAGGSLRLSCAASGRTFSEYAMGWFRQAPGKEREFVATISWSGGSTYYTDSVKGRFTISRDNAKNTVYLQMNSLKPDDTAVYYCAAAGLGTVVSEWDYDYDYWGQGTQVTVSS
chain 2: B5 chain 2
B7: COVIC-58 (antibody)
chain 1: QVQLQESGGGLVQAGGSLRLSCAASGRTFSEYAMGWFRQAPGKEREFVATISWSGGSTYYTDSVKGRFTISRDNAKNTVYLQMNSLKPDDTAVYYCAAAGLGTVVSEWDYDYDYWGQGTQVTVSSGGGGSGGGGSASTKGPSVFPLAPSSKSTSGGTAALGCLVKDYFPEPVTVSWNSGALTSGVHTFPAVLQSSGLYSLSSVVTVPSSSLGTQTYICNVNHKPSNTKVDKKVEPKSCDKTHTAPELLGGPSVFLFPPKPKDTLMISRTPEVTCVVVDVSHEDPEVKFNWYVDGVEVHNAKTKPREEQYNSTYRVVSVLTVLHQDWLNGKEYKCKVSNKALPAPIEKTISKAKGQPREPQVYTLPPSRDELTKNQVSLTCLVKGFYPSDIAVEWESNGQPENNYKTTPPVLDSDGSFFLYSKLTVDKSRWQQGNVFSCSVMHEALHNHYTQKSLSLSPGKKKKPLDGEYFTLQIRGRERFEMFRELNEALELKDAQAGKEPG
chain 2: B5 chain 2
B8: COVIC-66 (antibody)
chain: QVQLQESGGGLVQAGGSLRLSCAASGRTFSEYAMGWFRQAPGKEREFVATISWSGGSTYYTDSVKGRFTISRDNAKNTVYLQMNSLKPDDTAVYYCAAAGLGTVVSEWDYDYDYWGQGTQVTVSSGGSGGSQVQLQESGGGLVQAGGSLRLSCVASGSIFSINAMDWYRQAPGKQRELVAGITSGGSTNYGDFVKGRFTISRDNAKNTVYLQMDSLKPEDTAVYYCAAEVGGWGPPRPDYWGHGTQVTVSSGGGGSGGGGSEPKSCDKTHTCPPCPAPELLGGKKKPLDGEYFTLQIRGRERFEMFRELNEALELKDAQAGKEPG
B9: COVIC-127 (antibody)
chain 1: not shown
chain 2: QVQLQESGGGLVQAGGSLRLSCAASGRTFSEYAMGWFRQAPGKEREFVATISWSGGSTYYTDSVKGRFTISRDNAKNTVYLQMNSLKPDDTAVYYCAAAGLGTVVSEWDYDYDYWGQGTQVTVSSGGSGGSQVQLQESGGGLVQAGGSLRLSCAASGRTFSEYAMGWFRQAPGKEREFVATISWSGGSTYYTDSVKGRFTISRDNAKNTVYLQMNSLKPDDTAVYYCAAAGLGTVVSEWDYDYDYWGQGTQVTVSSGGGGSGGGGSKRTVAAPSVFIFPPSDEQLKSGTASVVCLLNNFYPREAKVQWKVDNALQSGNSQESVTEQDSKDSTYSLSSTLTLSKADYEKHKVYACEVTHQGLSSPVTKSFNRGEC
B10: COVIC-368 (antibody, V domains shown)
VH: QVQLVQSGAEVKKPGASVKVSCKAYGYTFTSHYMHWVRQAPGQGLEWMGIIDSSGGGASYPQKFQGRVTLTRDTSSSTVYMELSSLRSEDTAVYYCAKAHSTNWYGWFDPWGQGTLVTVSS
VL: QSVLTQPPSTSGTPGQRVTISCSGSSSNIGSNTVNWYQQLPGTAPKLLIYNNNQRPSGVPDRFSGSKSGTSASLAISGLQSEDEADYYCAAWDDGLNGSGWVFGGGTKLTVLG

These binders were tested against SARS-CoV-2 spike RBD (Wuhan-Hu-1) (Severe acute respiratory syndrome …, UniProt P0DTC2) (assay: SPR).

| Binder | Kd [nM] |
| --- | --- |
| B1 | 6.83 |
| B2 | 244 |
| B3 | 27.5 |
| B4 | 4.1 |
| B5 | 204 |
| B6 | 184 |
| B7 | 139 |
| B8 | 140 |
| B9 | 106 |
| B10 | 0.436 |
